Biological target: human LGR4 (residues 25–833), called full-length LGR4 (human, UniProt Q9BXB1 25-833)
Test: cryo-EM structure

B1: RSPO2(FU), FU domain of RSPO2 (residues 37–143) (domain or fragment)
chain: NPICKGCLSCSKDNGCSRCQQKLFFFLRREGMRQYGECLHSCPSGYYGHRAPDMNRCARCRIENCDSCFSKDFCTKCKVGFYLHRGRCFDECPDGFAPLEETMECVE
With B1 the “stoichiometry N” value was 1.

Reference: article PMC12462478 (Nature Communications, 2025)
